Experimental data from ChEMBL document CHEMBL1145329, “Novel methylenephosphophosphonate analogues of mycophenolic adenine dinucleotide. Inhibition of inosine monophosphate dehydrogenase” (J Med Chem, 2006).

System: NC(=O)c1ccc[n+]([C@@H]2O[C@H](COP(=O)([O-])OP(=O)(O)OC[C@H]3O[C@@H](n4cnc5c(N)ncnc54)[C@H](O)[C@@H]3O)[C@@H](O)[C@H]2O)c1
Assay: Inhibition of human IMPDH
Format: protein assay

**Q.** How did the Km turn out when “Inosine-5'-monophosphate dehydrogenase (IMPDH) (Homo sapiens) (from UniProt P20839+P12268)” was run?
**A.** Its Km is 100 µM.
